Measured values from article PMC8563363.

Key:
[1] = target: trimeric cohesin (SMC1, SMC3-FLAG, SCC1(TEV)-Halo-His14) (human) (UniProt Q14683); test: high-speed atomic force microscopy
NIPBL (human) = NIPBL (human) (UniProt Q6KC79); test: high-speed atomic force microscopy

A stoichiometry N [1] of 1 was found for “NIPBL (from UniProt Q6KC79 1-2804) (natural protein)” in this work.
A stoichiometry N (NIPBL (human)) of 2 was found for NIPBL, Q6KC79 1-2804 in this work.
